Laboratory results: patent US20140112931A1

Key:
[1] = biological target: human HER3-Fc protein (R&D system) (human) (UniProt P21860); experiment: ELISA, HER3-Fc coated at 250 ng/ml
[2] = biological target: HER3 receptor (soluble analyte of the BIACORE analysis) (human) (UniProt P21860); experiment: SPR, BIACORE 3000, 25 °C; antibody captured by anti-mouse polyclonal on CM5, HER3 receptor injected; bivalent analyte model
[3] = biological target: human HER3-Fc protein (R&D system) (human) (UniProt P21860); experiment: ELISA towards a 250 ng/ml coating solution of HER3 receptor, purified antibody

B1: murine anti-HER3 monoclonal antibody 9F7-F11 (antibody, from another filing, V domains shown)
VH: EVKLVESGGGLVQPGGSLKLSCAASGFTFSSYTMSWVRQTPEKRLEWVAYISDGGGVTYYPDTIKGRFTISRDNAKNTLYLQMSSLKSEDTAMYYCARDRYGLFAYWGQGTLVTVSA
VL: DIVMTQSQKFMSTSVGDRVSITCKASQNVGIAVAWYQQKPGQSPKLLIYSASNRYTGVPDRFTGSGSGTDFTLTISNMQSEDLADYFCQQYSNYPYTFGGGTKLEIK
For B1, the EC50 [1] was < 1 ng/mL, the Kd [2] was 4.4 nM and the koff [2] was 0.00024 s⁻¹. It also gave a kon [2] of 54000 M⁻¹ s⁻¹ and an Ab titer after purification (Ab concentration showing an absorbance of 1 by ELISA) [3] of 400 pg/mL.
